For assay [1], the target named is PduA* (Citrobacter freundii PduA with a C-terminal 23 residue extension) (C. freundii). The assay is described as follows: native gel or EMSA; PduA and variants alone on native PAGE run at pH 8.5, 4 °C; low mobility = tessellated, high mobility = not tessellated; step: hexamer with hexamer (tessellation). Background: In EMSA bound probe runs differently from free probe, usually more slowly.

In a further assay the target is PduA* A63R (C. freundii). The assay is described as follows: native gel or EMSA; PduA, A63R and A^GGSST alone on native gel run at pH 9.5; mobility tells tessellated from not tessellated; step: hexamer with hexamer (tessellation).
Assay [2] addresses PduA* (Citrobacter freundii PduA with a C-terminal 23 residue extension) (C. freundii). The assay is described as follows: native gel or EMSA; titration of tagless PduL into His-tagged PduA on a 6% acrylamide native gel, with anti-His Western blot to locate PduA.
Assay [3] shares this target. The assay is described as follows: native gel or EMSA; titration of PduL into PduA trimer of hexamers on a native gradient gel (higher resolution).

In the case of “PduA* (Citrobacter freundii PduA with a C-terminal 23 residue extension) (natural protein)”, the stoichiometry N – broadly, the number of molecules, sites or subunits per partner or assembly – in assay [1] was found to be 3 hexamers.
PduA* A63R (natural protein) gave a stoichiometry N with PduA* A63R (C. freundii) of 3 hexamers.

B1: PduL (Citrobacter freundii), His-tag cleaved (enzyme)
chain: MDKQQLETTVTKVLDEMRERPIPLGISNRHIHLCAEDYDRLFPNHPISEKKELLQPGQYAADQTVTLVGPKGQLKNVRLLGPLRSTSQVEISRTDARTLGIAAPLRMSGSIEGTPGVRLISPFAELDLASGVIVAQRHIHMSPLDALILRVSHGDKVSVAINGDERRLIFDNVAVRVSPDMRLEMHIDTDEANAAGADNPQAFATLVSPR
Take B1: in assay [2], the stoichiometry N (PduL dimer per PduA hexamer) was determined as 1. The molecule also displayed a stoichiometry N (PduL dimers per PduA trimer of hexamers) in assay [3] of 3.

For the origin of these results see publication PMC11157265.
